Results reported in US20240116985A1, “STAPLED PEPTIDES AND METHODS THEREOF” (priority 2020, published 2024).
Starred links: 1 amine or outer side, 2 acyl side, 3 side chain; linkers in the order of their positions; H or OH if unused. Positions of bridges follow the written chain, without caps; N, C: chain ends. Non-standard residues stand in square brackets, D forms with d. Groups on a side chain read outwards from the residue. Primed or numbered codes have the meaning given here. *: point of attachment. PyrS2″ = (S)-3-amino-1-((pent-4-en-1-yloxy)carbonyl)pyrrolidine-3-carboxylic acid (stapling residue), C=CCCCOC(=O)N1CC[C@@](N[*:1])(C(=O)[*:2])C1; B5(4) = 2,2-bis(4-pentenyl)glycine = 2-amino-2-(pent-4-en-1-yl)hept-6-enoic acid (stitching residue), C=CCCCC(CCCC=C)(N[*:1])C(=O)[*:2]; B5(5) = 2,2-bis(4-pentenyl)glycine, 2-amino-2-(pent-4-en-1-yl)hept-6-enoic acid (stitching residue), C=CCCCC(CCCC=C)(N[*:1])C(=O)[*:2]; PyrS2 = (S)-3-amino-1-((pent-4-en-1-yloxy)carbonyl)pyrrolidine-3-carboxylic acid, C=CCCCOC(=O)N1CC[C@@](N[*:1])(C(=O)[*:2])C1; MePpzAsn = (S)-2-amino-4-(4-methylpiperazin-1-yl)-4-oxobutanoic acid, CN1CCN(C(=O)C[C@H](N[*:1])C(=O)[*:2])CC1; F2PipNva = (S)-2-amino-5-(4,4-difluoropiperidin-1-yl)pentanoic acid, O=C([C@H](CCCN1CCC(F)(F)CC1)N[*:1])[*:2]; Lithocholoyl = C[C@H](CCC(=O)*)[C@H]1CC[C@H]2[C@@H]3CC[C@@H]4C[C@H](O)CC[C@]4(C)[C@H]3CC[C@]12C; MorphAsn = (S)-2-amino-4-morpholino-4-oxobutanoic acid, O=C(C[C@H](N[*:1])C(=O)[*:2])N1CCOCC1; B5(3) = 2,2-bis(4-pentenyl)glycine (stitching residue), C=CCCCC(CCCC=C)(N[*:1])C(=O)[*:2]; Me3AdamantC = 3,5,7-trimethyladamantane-1-carbonyl, CC12CC3(C)CC(C)(C1)CC(C(=O)*)(C2)C3; Nva(5-morpholino) = N[C@@H](CCCN1CCOCC1)C(=O)O; Bta = N[C@@H](Cc1csc2ccccc12)C(=O)O; αAllylPro = C=CC[C@@]1(C(=O)O)CCCN1; tBuAla = CC(C)(C)C[C@H](N)C(=O)O; 3Thi = N[C@@H](Cc1ccsc1)C(=O)O; PEG2′ = not defined here

What follows are binders tested against full-length beta-Catenin (Uniprot ID P35222) (Homo sapiens (Human)) (UniProt P35222) (assay: fluorescence polarization competition; displacement of 5FAM-TCF4(10-53) from full-length beta-catenin).

IC50	Binder
30 nM	Ac-[αAllylPro]D[tBuAla][B5(3)]DD[MePpzAsn]AFL[PyrS2″][3Thi][Bta]Q-NH2 (staple 1-4, 4-11) [I-1484]
7 nM	Ac-[αAllylPro]D[tBuAla][B5(3)]DD[F2PipNva]AFL[PyrS2″][3Thi][Bta]Q-NH2 (staple 1-4, 4-11) [I-1482]
6 nM	Ac-[αAllylPro]D[tBuAla][B5(3)]DDAAF[MePpzAsn][PyrS2″][3Thi][Bta]Q-NH2 (staple 1-4, 4-11) [I-1488]
113 nM	Ac-[αAllylPro]D[tBuAla][B5(5)]DDAK(Me3AdamantC)FL[PyrS2″][3Thi][Bta]Q-NH2 (staple 1-4, 4-11) [I-1475]
148 nM	Ac-[αAllylPro]D[tBuAla][B5(5)]DDAAFL[PyrS2″][3Thi][Bta]QK(Lithocholoyl)-NH2 (staple 1-4, 4-11) [I-1477]
37 nM	Ac-[αAllylPro]D[tBuAla][B5(3)]DDAAFL[PyrS2″][3Thi][Bta]QK([PEG2′-Me3AdamantC])-NH2 (staple 1-4, 4-11) [I-1480]
224 nM	Ac-[αAllylPro]D[tBuAla][B5(5)]DDAK(Lithocholoyl)FL[PyrS2][3Thi][Bta]Q-NH2 (staple 1-4, 4-11) [I-1473]
75 nM	Ac-[αAllylPro]D[tBuAla][B5(4)]DDAAFL[PyrS2″][3Thi][Bta]QK([PEG2′-Lithocholoyl])-NH2 (staple 1-4, 4-11) [I-1478]
7 nM	Ac-[αAllylPro]D[tBuAla][B5(3)]DD[Nva(5-morpholino)]AFL[PyrS2″][3Thi][Bta]Q-NH2 (staple 1-4, 4-11) [I-1481]
7 nM	Ac-[αAllylPro]D[tBuAla][B5(3)]DDAAF[Nva(5-morpholino)][PyrS2″][3Thi][Bta]Q-NH2 (staple 1-4, 4-11) [I-1485]
173 nM	Ac-[αAllylPro]D[tBuAla][B5(5)]DDAAFL[PyrS2″][3Thi][Bta]QK(Me3AdamantC)-NH2 (staple 1-4, 4-11) [I-1479]
22 nM	Ac-[αAllylPro]D[tBuAla][B5(3)]DD[MorphAsn]AFL[PyrS2″][3Thi][Bta]Q-NH2 (staple 1-4, 4-11) [I-1483]
5 nM	Ac-[αAllylPro]D[tBuAla][B5(3)]DDAAF[F2PipNva][PyrS2″][3Thi][Bta]Q-NH2 (staple 1-4, 4-11) [I-1486]
41 nM	Ac-[αAllylPro]D[tBuAla][B5(4)]DDAK([PEG2′-Lithocholoyl])FL[PyrS2″][3Thi][Bta]Q-NH2 (staple 1-4, 4-11) [I-1474]
16 nM	Ac-[αAllylPro]D[tBuAla][B5(4)]DDAK([PEG2′-Me3AdamantC])FL[PyrS2″][3Thi][Bta]Q-NH2 (staple 1-4, 4-11) [I-1476]
7 nM	Ac-[αAllylPro]D[tBuAla][B5(3)]DDAAF[MorphAsn][PyrS2″][3Thi][Bta]Q-NH2 (staple 1-4, 4-11) [I-1487]
